# Data reported in patent US20260028391A1 (HUMABS BIOMED, published 2026).
# How the values were obtained:
# RSV-A F = target: T1, RSV-A F (RSV A); experiment: BLI
# T1 construct: also called RSV F A
# RSV-B F = target: T2, RSV-B F (RSV B); experiment: BLI
# T2 construct: also called RSV F B
# [1] = target: RSV A fusion glycoprotein (F), virus of the neutralisation assays of Tables 54 and 57 (RSV A); experiment: cell-based or functional assay
# RSV F A, A2 Ref = target: T3, RSV F A, A2 Ref (RSV A, strain A2, UniProt P03420 26-574); experiment: FACS, % binding to RSV F A variants
# T3 construct: whole, on cells
# RSV F A S443P-K445N = target: T4, RSV F A S443P-K445N (RSV A, strain A2, UniProt P03420 26-574); experiment: FACS, % binding to RSV F A variants
# T4 construct: whole, on cells
# RSV F A G446E = target: T5, RSV F A G446E (RSV A, strain A2, UniProt P03420 26-574); experiment: FACS, % binding to RSV F A variants
# T5 construct: whole, on cells
# RSV F A L203I = target: T6, RSV F A L203I (RSV A, strain A2, UniProt P03420 26-574); experiment: FACS, % binding to RSV F A variants
# T6 construct: whole, on cells
# RSV F B, B Ref = target: T7, RSV F B, B Ref (RSV B); experiment: FACS, % binding to RSV F B variants
# T7 construct: whole, on cells
# RSV F B K68N-N201S = target: T8, RSV F B K68N-N201S (RSV B); experiment: FACS, % binding to RSV F B variants
# T8 construct: whole, on cells
# RSV F B K68N-N208S = target: T9, RSV F B K68N-N208S (RSV B); experiment: FACS, % binding to RSV F B variants
# T9 construct: whole, on cells
# RSV F B N201S = target: T10, RSV F B N201S (RSV B); experiment: FACS, % binding to RSV F B variants
# T10 construct: whole, on cells
# RSV F B N208D = target: T11, RSV F B N208D (RSV B); experiment: FACS, % binding to RSV F B variants
# T11 construct: whole, on cells
# RSV F B N208S = target: T12, RSV F B N208S (RSV B); experiment: FACS, % binding to RSV F B variants
# T12 construct: whole, on cells; also called mutant N208S
# RSV F B S443P = target: T13, RSV F B S443P (RSV B); experiment: FACS, % binding to RSV F B variants
# T13 construct: whole, on cells; also called mutant S443P
# [2] = target: fusion glycoprotein (F) of RSV A GFP (Tables 41 and 42) (respiratory syncytial virus A); experiment: cell-based or functional assay
# [3] = target: fusion glycoprotein (F) of RSV B GFP (Tables 41 and 42) (respiratory syncytial virus B); experiment: cell-based or functional assay
# [4] = target: fusion glycoprotein (F) of MPV A GFP (Tables 41 and 43) (metapneumovirus A); experiment: cell-based or functional assay
# biot-RSV-F wt = biot-RSV-F wt (respiratory syncytial virus (RSV)); experiment: BLI (Octet), biotinylated F on SA sensors, mAb 5 µg/ml
# [5] = target: fusion glycoprotein of the RSV used in the neutralization assay of Example 1 (respiratory syncytial virus (strain not …)); experiment: cell-based or functional assay
# [6] = target: fusion glycoprotein of the MPV D280 used in the neutralization assay of Example 3 (metapneumovirus (strain )); experiment: cell-based or functional assay
Binder,Kd (RSV-A F) [nM],Kd (RSV-B F) [nM],"IC50, neutralization of RSVA [1] [ng/mL]","% binding (RSV F B, B Ref) [%]",% binding (RSV F B K68N-N201S) [%],% binding (RSV F B K68N-N208S) [%],% binding (RSV F B N201S) [%],% binding (RSV F B N208D) [%],% binding (RSV F B N208S) [%],% binding (RSV F B S443P) [%],RSV Neutralization - IC50 [5] [ng/mL],MPV D280 Neutralization - IC50 [6] [ng/mL],other results
"MPK65-v2-v1.2 (antibody, V domains shown) VH: QVPLVQSGAEVKKPGESLKISCKGSGYSFINYWIGWVRQMPGKGLEWMGVIYPFDSDTKYSPSFQGHVTISADKSSNTAYVQWSSLKASDTAMYYCARFTFGIAVVTDDVSGEGQAFEIWGQGTMVTVSS VL: QIVMMQSPATLSVSPGERATLSCRASQSVAGNLAWYQQRPGQAPRLLIYGASTRATGVPARFSGSGSETEFTLTISSLQSEDFAVYYCHQYSNLPQAFGQGTRLDIK",0.205,0.581,4.38,56.4,30.8,0.047,35.9,0.47,0.041,33.8,,,"% binding (RSV F A, A2 Ref): 56%; % binding (RSV F A S443P-K445N): 33.5%; % binding (RSV F A G446E): 25.4%; % binding (RSV F A L203I): 18%"
"MPK201-v1.2 (antibody, V domains shown) VH: EVQLVQSGAEVKKPGESLKISCQGSGYSFINYWIGWVRQKPGKGLEWMGIIYPFDSETKYSPSFQGHVTFSADKSINTAYVQWSSLRASDTAMYYCARFTFGLAVTTADVSGEGQAFEIWGQGTMVTVSS VL: QIVMMQSPATLSVSPGERATLSCRASQSVAGNLAWYQQRPGQAPRLLVYGASTRASGVPARFSGSGSETEFTLTISSLQSEDFAVYYCHHYSDLPQAFGQGTRLDIK",0.211,0.161,2.88,61.3,47.3,12.1,47.7,0.015,14.4,45.8,,,"% binding (RSV F A, A2 Ref): 66.9%; % binding (RSV F A S443P-K445N): 36%; % binding (RSV F A G446E): 29%; % binding (RSV F A L203I): 40%"
"MPK201-v4.1 (antibody, V domains shown) VH: QVQLVQSGAEVKKPGESLKISCQGSGYSFISYWIGWVRQKPGKGLEWMGIIYPFDSETKYSPSFQGHVTFSADKSINTAYVQWSSLRASDTAMYYCARFTFGLAVTTADVSGEGQAFEIWGQGTMVTVSS VL: EIVMMQSPATLSVSPGERATLSCRASQSVAGNLAWYQQRPGQAPRLLVYGASTRASGVPARFSGSGSETEFTLTISSLQSEDFAVYYCHHYSDWPQAFGQGTRLDIK",0.292,0.552,4.35,51.9,30,0.048,33,0.018,0.016,31.5,,,"% binding (RSV F A, A2 Ref): 54.1%; % binding (RSV F A S443P-K445N): 2700%; % binding (RSV F A G446E): 18%; % binding (RSV F A L203I): 13.1%"
"MPK65-v2-v3.1 (antibody, V domains shown) VH: QVPLVQSGAEVKKPGESLKISCKGSGYSFISYWIGWVRQMPGKGLEWMGVIYPFDADTKYSPSFQGHVTISADKSSNTAYVQWSSLKASDTAMYYCARFTFGIAVVTDDVSGEGQAFEIWGQGTMVTVSS VL: EIVMMQSPATLSVSPGERATLSCRASQSVAGNLAWYQQRPGQAPRLLIYGASTRATGVPARFSGSGSETEFTLTISSLQSEDFAVYYCHQYSNWPQAFGQGTRLDIK",0.192,0.639,5.4,60.1,22.6,0.052,31.3,0.14,0.029,30.6,,,
"RSD5-FR-GL-rIgG1 (antibody, V domains shown, Germline-reverted version of RSD5 (framework regions), recombinant IgG1; also called RSD5-FR-GL-rlgG1) VH: QVQLVESGGGVVQPGRSLRLSCAASGFAFNNFAMHWVRQAPGKGLEWVAVVSYDGTSPYYADSVKGRFTISRDNSKNTLYLQMNSLRAEDTAVYYCARGLGSGSYSWIGYFYAMDVWGQGTTVTVSS VL: QSALTQPASVSGSPGQSITISCTGTSSDVGGYVYVSWYQQHPGKAPKLMIYDVSNRPSGVSNRFSGSKSGNTASLTISGLQAEDEADYYCISYTDRNTVVFGGGTKLTVL",,,,,,,,,,,,,"IC50 (ng/ml), RSV A GFP neutralization [2]: 1.27 ng/mL; IC50 (ng/ml), RSV B GFP neutralization [3]: 1.14 ng/mL; IC50 (ng/ml), MPV A GFP neutralization [4]: > 2000 ng/mL; Kd (biot-RSV-F wt): 1.46 nM"
"MPK130 (antibody, V domains shown) VH: EVQLVESGGGLVKPGGSLTLSCEASGFSISGYYMIWVRQAPGKGLEWVSSISASDTYIDYAVSVQGRFTISRHNTKNSLYLQMSSLRVEDTGVYYCTREKVPSPGPFDCWGQGTLVTVSS VL: QSVLTQPPSVSGAPGQRITISCTGTSSNIGAGYDVHWYQHLPGAAPRLLIYVNTNRPSGVPDRFSGARSGTSASLAITGLQAEDEADYYCQSYDRSLGGWAFGEGTKVTVL",,,,,,,,,,,20.6,4.3,
"MPK176-v4.3 (antibody, V domains shown) VH: QVQLVQSGAEVKKPGASVRVSCKASGYTLTAYGISWVRQAPGQGLEWMGWISPKHGSTHYAQRFQGRVTMTTDTSTSTAYMELRSLRPDDTAVYFCAREGVDIMAVPWYFDYWGQGTLVAVSS VL: SYVLTQPPSVSVAPGQTARISCGGNNIGSKSVHWYQQKPGQAPVVVVYDDSKRPSGIPERFSGSNSGNTATLTISGVEAGDEADYFCQVWDSATDHWVFGGGTKLTVL",0.139,0.0117,4.35,34.2,60.4,59.3,60.6,,61.2,29.8,,,
"MPK204 (antibody, V domains shown) VH: QVQLVESGGGLVKPGGSLRLSCEASGLSLSGYYMIWIRQAPGKGLEWISSISSSSNYIDYADSVKGRFTISRHNGQNTLYLQMNSLRVEDTAVYYCATEQTPSPGPFDLWGQGTLVTVSS VL: QSVLTQPPSVSGAPGQRVTISCTGTSSNIGTGYDVHWYQQFPGTSPKLLIYRNTNRPSGVPDRFSGSKSGSSASLAIAGLQAEDEADYYCQSYDRSVSGWVFGGGTKLTVL",,,,,,,,,,,12.1,6,
"MPK133 (antibody, V domains shown) VH: QVQLVQSGGGLVKPGGSLRLSCAASEFSFSGYFMIWIRQAPGKGLEWISYISGSSTYTNYADSVKGRFTISRDNAQNTLYLEMNSLRAEDTGVYYCATEQVPSPGPFDLWGQGTLVTVSS VL: QSVLTQPPSVSGAPGQRVTISCTGSSSNIGAGYDVHWYQQFPGRSPTLLIYRNTNRPSGVPDRFSGSQSGSSASLAITGLQAEDEADYYCQSYDRTLSGWAFGGGTKVTVL",,,,,,,,,,,21.1,3.5,
"MPK146 (antibody, V domains shown) VH: QVQLVESGGGLVKPGGSLRLSCAASGFTFSGYYMIWIRQAPGKGLEWIASISGSSNYIDYADSVRGRFTISRDNARNILDLQMNSLRAGDTALYYCATEQVPSPGPFDLWGQGTLVTVSS VL: QSVLTQPPSVSGAPGQRVTISCTGSNSNLGAGYDVHWYQQFPGTSPKLLIYRNTNRPSGVPDRFAGSKSGTSASLAITGLQAEDEADYYCQSYDRSLSGWVFGGGTKLTVL",,,,,,,,,,,16.6,5.4,
"MPK158 (antibody, V domains shown) VH: EVQLVESGGGLVKPGGSLRLSCAASGFSISGFYMIWIRQAPGKGLEWISDISASSSYIDYADSVKGRFTISRDNGQNTVHLLMNNLRADDTGVYYCAREQTPSPGPFDLWGQGTLVTVST VL: QPVLTQPPSVSGAPGQRVTISCTGRSSNIGAGYDVHWYQHLPGTSPKLLIYRNSNRPSGVPDRFSGSTSGTSASLAITGLQADDEADYYCQAYDRILGGWAFGGGTKLTVL",,,,,,,,,,,18.2,6,
